According to patent publication US20230159659A1:

Tests used:
[1] = target: Papain from papaya latex (Sigma) (papaya) (UniProt P00784)
[2] = target: Papain from papaya latex (Sigma) (papaya) (UniProt P00784); remark: listed apart in the source

Substance	protease activity (OD), Protease Assay Kit [1] [OD]	protease activity (% of papain alone), Protease Assay Kit [2] [%]
Recombinant Human Cystatin SN Protein (recombinant CST1, R&D Systems)	0.0005	
Recombinant human Cystatin SA protein (recombinant CST2, Abcam)		64.3
